Data from patent US20200297842A1 (published 2020).

Tests used:
[1] = target: T1, Fc tagged human SIRPγ (ACRO # SIG-H5253) (human, UniProt Q9P1W8 29-360); experiment: ELISA, plate-coated Fc tagged human SIRPγ; apparent Kd
T1 construct: Bought protein; it includes the transmembrane and cytoplasmic part, which a soluble Fc fusion would not carry; also called Fc tagged human SIRP gamma; recombinant human SIRP gamma; not shown: Fc tag
Experimental: The binding of anti-SIRP antibodies of the present disclosure to SIRP gamma (SIRPγ) was determined by ELISA using an Fc tagged human SIRPγ. Binding by soluble anti-SIRP antibodies was measured in vitro.
(§1) Fc tagged human SIRPγ (ACRO # SIG-H5253) is adsorbed to high-binding microtiter plates at a concentration of 1 μg/ml in phosphate buffered saline (PBS) overnight at 4° C. The coating solution is removed, the wells are washed and then blocked with 75% casein in PBS containing 0.5% Tween 20 (PBST) for 60 minutes at room temperature while shaking. Blocking solution is removed, the wells are washed and incubated for 60 minutes at room temperature while shaking with anti-SIRP mAbs diluted in PBST at a starting concentration of 30 μg/ml and reducing the concentration in 3-fold serial dilutions. Wells are washed three times with PBST and incubated for 60 minutes at room temperature while shaking with an HRP labeled donkey anti-mouse or anti-human secondary antibody (Jackson ImmonResearch Laboratories) diluted 1:10,000 in PBST. The wells are washed and then incubated with peroxidase substrate and the absorbance at 450 nm determined. The apparent affinities were calculated using a non-linear fit model (GraphPad Prism).

[2] = target: T2, Fc tagged human SIRPα (ACRO # SIG-H5251, genotype variant 1) (human, UniProt P78324 31-370, limits assumed); experiment: ELISA, plate-coated Fc tagged human SIRPα; apparent Kd
T2 construct: Bought protein; also called Fc tagged human SIRP alpha; recombinant human SIRPα; not shown: Fc tag
T2 sequence (P78324 31-370 limits assumed, change not shown, form in doubt): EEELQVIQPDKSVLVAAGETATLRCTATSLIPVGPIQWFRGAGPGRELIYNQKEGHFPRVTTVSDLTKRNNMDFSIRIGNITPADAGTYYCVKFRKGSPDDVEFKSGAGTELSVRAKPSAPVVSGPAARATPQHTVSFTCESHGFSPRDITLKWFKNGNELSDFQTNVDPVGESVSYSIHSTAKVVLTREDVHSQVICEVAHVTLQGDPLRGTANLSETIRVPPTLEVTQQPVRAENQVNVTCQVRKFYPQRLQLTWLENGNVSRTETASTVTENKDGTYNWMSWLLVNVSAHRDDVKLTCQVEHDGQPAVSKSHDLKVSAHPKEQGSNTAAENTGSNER
Experimental: The binding of anti-SIRP monoclonal antibodies (mAbs) of the present disclosure to SIRP alpha (SIRPα) was determined by solid phase ELISA using an Fc tagged human SIRP alpha. Binding by soluble anti-SIRP antibodies was measured in vitro.
Fc tagged human SIRPα (ACRO # SIG-H5251, genotype variant 1) is adsorbed to high-binding microtiter plates at a concentration of 1 μg/ml diluted in phosphate buffered saline (PBS) overnight at 4° C. The coating solution is removed, the wells are washed and then blocked with 75% casein in PBS containing 0.5% Tween 20 (PBST) for 60 minutes at room temperature while shaking. Blocking solution is removed, the wells are washed and incubated for 60 minutes at room temperature while shaking with either murine or human anti-SIRP mAbs diluted in PBST at a starting concentration of 30 μg/ml and reducing the concentration in 3-fold serial dilutions. Wells are washed three times with PBST and incubated for 60 minutes at room temperature while shaking with an HRP-labeled donkey anti-mouse or anti-human secondary antibody (Jackson ImmunoResearch Laboratories) diluted 1:10,000 in PBST. The wells are washed and then incubated with peroxidase substrate and the absorbance at 450 nm measured. The apparent affinities were calculated using a non-linear fit model (GraphPad Prism).

[3] = target: T1, Fc tagged human SIRPγ (ACRO # SIG-H5253); experiment: ELISA, plate-coated Fc tagged human SIRPγ
Experimental: as §1

[4] = target: T1, Fc tagged human SIRPγ (ACRO # SIG-H5253); experiment: blocking ELISA: mAb with human SIRPγ (ACRO # SIG-H5253) on plate-coated HIS tagged human CD47
Experimental: HIS tagged human CD47 (ACRO # CD7-H5227) is adsorbed to high-binding microtiter plates at a concentration of 2 μg/ml diluted in PBS overnight at 4° C. The coating solution is removed, the wells are washed and then blocked with 75% casein in PBS containing 0.5% Tween 20 (PBST) for 60 minutes at room temperature while shaking. Blocking solution is removed, the wells are washed and incubated for 60 minutes at room temperature while shaking with anti-SIRP mAbs diluted in PBST at a starting concentration of 30 μg/ml and reducing the concentration in 3 fold serial dilutions and 0.5 μg/ml of human SIRPγ (ACRO # SIG-H5253). Wells are washed three times with PBST and incubated for 60 minutes at room temperature while shaking with an HRP labeled donkey anti-mouse or anti-human secondary antibody (Jackson ImmunoResearch Laboratories) diluted 1:20,000 in PBST. The wells are washed and then incubated with peroxidase substrate and the absorbance at 450 nm determined. The IC₅₀ was calculated using a non-linear fit model (GraphPad Prism).

T1 sequence (Q9P1W8 29-360 limits assumed): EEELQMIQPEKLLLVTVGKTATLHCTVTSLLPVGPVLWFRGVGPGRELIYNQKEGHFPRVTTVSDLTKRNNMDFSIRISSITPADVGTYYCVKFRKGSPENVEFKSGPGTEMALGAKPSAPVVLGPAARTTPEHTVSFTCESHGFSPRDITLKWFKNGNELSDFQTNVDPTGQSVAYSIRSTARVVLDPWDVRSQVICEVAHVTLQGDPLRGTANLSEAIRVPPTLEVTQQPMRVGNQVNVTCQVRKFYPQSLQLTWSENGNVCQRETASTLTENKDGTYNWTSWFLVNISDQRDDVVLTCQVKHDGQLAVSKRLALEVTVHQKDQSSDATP

Kd [1] [pM]	Kd [2] [pM]	binding result [3]	IC50 [4] [pM]	Binder
225	164			SIRP23 (antibody, human IgG4 S228P, kappa, V domains shown) VH: EVQLQQSGPDLVKPGASVKISCKASGYSFTDYFLNWVKQSHGKSLEWIGRINPYNGDSFINQNFRDKATLTVDKSSTTAHMDLLSLTSEDSAIYYCGRGGYDGYFIAYFDYWGQGSLVTVSA VL: DIKMTQSPSSMYASLGQRVTITCKASQDINSHLSWFQEKPGKSPKTLIYRANRLADGVPSRFSGSGSGQDYFLTISSLEYEDVGIYYCLQYDEFPYTFGGGTKLEIKR
7220	194			SIRP11 (antibody, human IgG4 S228P, kappa, V domains shown, shares the heavy-chain CDRs of SIRP4) VH: QVQLVQSGAEVKKPGASVKVSCKASGYSFTDYFLNWVRQAPGQGLEWMGRINPYNGDSFINQNFRDRVTMTRDTSTSTVYMELSSLRSEDTAVYYCARGGYDGYFIAYFDYWGAGTTVTVSS VL: DIQMTQSPSSLSASVGDRVTITCKASQDINSHLSWYQQKPGKAPKLLIYRANRLATGVPSRFSGSGSGTDFTFTISSLQPEDIATYYCLQYDEFPYTFGGGTKLEIKR
> 15000	326			SIRP17 (antibody, human IgG4 S228P, kappa, V domains shown) VH: EVQLVQSGAEVKKPGESLKISCKGSGYSFTDYFLNWVRQMPGKGLEWMGRINPYNGDSFINQNFRDQVTISADKSISTAYLQWSSLKASDTAMYYCARGGYDGYFIAYFDYWGAGTTVTVSS VL: DIQMTQSPSSLSASVGDRVTITCKASQDINSHLSWYQQKPGKAPKLLIYRANRLATGVPSRFSGSGSGTDFTFTISSLQPEDIATYYCLQYDEFPYTFGGGTKLEIKR
	> 40000			SIRP16 (antibody, human IgG4 S228P, kappa, V domains shown) VH: QVQLVQSGAEVKKPGSSVKVSCKASGYSFTDYFLNWVRQAPGQGLEWMGRINPYNGDSFINQNFRDRVTITADKSTSTAYMELSSLRSEDTAVYYCARGGYDGYFIAYFDYWGAGTTVTVSS VL: DIQMTQSPSSLSASVGDRVTITCKASQDINSHLSWYQQKPGKAPKLLIYRANRLATGVPSRFSGSGSGTDFTFTISSLQPEDIATYYCQQYDEFPYTFGGGTKLEIKR
	565	no binding (tested: 30 µg/ml)		SIRP14 (antibody, human IgG4 S228P, kappa, V domains shown) VH: QVQLVQSGAEVKKPGSSVKVSCKASGYSFTDYFLNWVRQAPGQGLEWMGRINPYNGDSFINQNFRDRVTITADKSTSTAYMELSSLRSEDTAVYYCARGGYDGYFIAYFDYWGAGTTVTVSS VL: DIQMTQSPSSLSASVGDRVTITCKASQDINSHLSWYQQKPGKAPKLLIYRANRLATGVPSRFSGSGSGTDFTFTISSLQPEDIATYYCLQYDEFPYTFGGGTKLEIKR
	> 11000	no binding (tested: 30 µg/ml)		SIRP22 (antibody, human IgG4 S228P, kappa, V domains shown) VH: QVQLVQSGAEVKKPGASVKVSCKASGYSFTDYFLNWVRQAPGQGLEWMGRINPYNGDSFINQNFRDRVTMTVDTSTSTVYMELSSLRSEDTAVYYCARGGYDGYFIAYFDYWGAGTTVTVSS VL: DIQMTQSPSSLSASVGDRVTITCKASQDINSHLSWYQQKPGKAPKLLIYRANRLATGVPSRFSGSGSGTDFTFTISSLQPEDIATYYCQQYDEFPYTFGGGTKLEIKR
> 34000	364			SIRP18 (antibody, human IgG4 S228P, kappa, V domains shown) VH: EVQLVQSGAEVKKPGESLKISCKGSGYSFTDYFLNWVRQMPGKGLEWMGRINPYNGDSFINQNFRDQVTISADKSISTAYLQWSSLKASDTAMYYCARGGYDGYFIAYFDYWGAGTTVTVSS VL: DIQMTQSPSSLSASVGDRVTITCKASQDINSHLSWYQQKPGKAPKLLIYRANRLATGVPSRFSGSGSGTDFTFTISSLEYEDIATYYCLQYDEFPYTFGGGTKLEIKR
> 29000	157			SIRP20 (antibody, human IgG4 S228P, kappa, V domains shown) VH: QVQLVQSGAEVKKPGASVKVSCKASGYSFTDYFLNWVRQAPGQGLEWMGRINPYNGDSFINQNFRDRVTMTVDTSTSTVYMELSSLRSEDTAVYYCARGGYDGYFIAYFDYWGAGTTVTVSS VL: DIQMTQSPSSLSASVGDRVTITCKASQDINSHLSWYQQKPGKAPKLLIYRANRLATGVPSRFSGSGSGTDFTFTISSLQPEDIATYYCLQYDEFPYTFGGGTKLEIKR
> 12000	165			SIRP12 (antibody, human IgG4 S228P, kappa, V domains shown) VH: QVQLVQSGAEVKKPGASVKVSCKASGYSFTDYFLNWVRQAPGQGLEWMGRINPYNGDSFINQNFRDRVTMTRDTSTSTVYMELSSLRSEDTAVYYCARGGYDGYFIAYFDYWGAGTTVTVSS VL: DIQMTQSPSSLSASVGDRVTITCKASQDINSHLSWYQQKPGKAPKLLIYRANRLATGVPSRFSGSGSGTDFTFTISSLEYEDIATYYCLQYDEFPYTFGGGTKLEIKR
> 21000	274			SIRP21 (antibody, human IgG4 S228P, kappa, V domains shown) VH: QVQLVQSGAEVKKPGASVKVSCKASGYSFTDYFLNWVRQAPGQGLEWMGRINPYNGDSFINQNFRDRVTMTVDTSTSTVYMELSSLRSEDTAVYYCARGGYDGYFIAYFDYWGAGTTVTVSS VL: DIQMTQSPSSLSASVGDRVTITCKASQDINSHLSWYQQKPGKAPKLLIYRANRLATGVPSRFSGSGSGTDFTFTISSLEYEDIATYYCLQYDEFPYTFGGGTKLEIKR
	1560	no binding (tested: 30 µg/ml)		SIRP13 (antibody, human IgG4 S228P, kappa, V domains shown) VH: QVQLVQSGAEVKKPGASVKVSCKASGYSFTDYFLNWVRQAPGQGLEWMGRINPYNGDSFINQNFRDRVTMTRDTSTSTVYMELSSLRSEDTAVYYCARGGYDGYFIAYFDYWGAGTTVTVSS VL: DIQMTQSPSSLSASVGDRVTITCKASQDINSHLSWYQQKPGKAPKLLIYRANRLATGVPSRFSGSGSGTDFTFTISSLQPEDIATYYCQQYDEFPYTFGGGTKLEIKR
> 14000	608			SIRP15 (antibody, human IgG4 S228P, kappa, V domains shown) VH: QVQLVQSGAEVKKPGSSVKVSCKASGYSFTDYFLNWVRQAPGQGLEWMGRINPYNGDSFINQNFRDRVTITADKSTSTAYMELSSLRSEDTAVYYCARGGYDGYFIAYFDYWGAGTTVTVSS VL: DIQMTQSPSSLSASVGDRVTITCKASQDINSHLSWYQQKPGKAPKLLIYRANRLATGVPSRFSGSGSGTDFTFTISSLEYEDIATYYCLQYDEFPYTFGGGTKLEIKR
> 10000	> 10000			SIRP10 (antibody, V domains shown) VH: EVQLQESGAELVRPGTSVKMSCKAAGYTFSNYLIGWIKQRPGHGLEWIGDIYPGDNNTNYNEKFRVKATLTADTSSNTAYMHLTSLTSEDSAIYYCAGGTDYDGFANWGQGTLVTVSA VL: ENVLTQSPAIMSASLGEKVTMSCRASSSVNYMYWYQQKSDASPKLWIYYTSKLAPGVPARFSGSGSGNSYSLTISSMEGEDAATYYCQQFTSSPFTFGSGTKLEIK
183	131		860	SIRP6 (antibody, V domains shown) VH: QIQLVQSGPELKKPGETVKISCKASGYTFTDYGVNWVKQGPGKDLQWMGWVNTNTRESTYVEDFKGRFAFSLETSASTAYLQINNLKNEDSSTYFCARGAYDAYYYYYGMDYWGQGTSVTVSS VL: DIQMTQSPASLSASVGETVTITCRASENIYSYLTWYKQKQGKSPQLLVYNAKTLAEGVPSRFSGSGSGTQFSLKINSLQPEDFGSYYCQHHYGSPRTFGGGTKLEIK
